Assay results from publication PMC6703946 (Molecular microbiology, 2019).

Biological target: T1, Spx with N-terminal His6 tag (S. aureus, UniProt P60379 1-131)
T1 sequence (looked up): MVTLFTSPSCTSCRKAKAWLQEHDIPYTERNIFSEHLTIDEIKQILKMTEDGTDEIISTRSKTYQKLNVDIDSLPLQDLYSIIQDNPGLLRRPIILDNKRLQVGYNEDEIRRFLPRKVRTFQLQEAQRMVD
Test: native gel or EMSA

B1: αCTD (residues 245 to 314 of the RNA polymerase α subunit RpoA) (domain or fragment, S. aureus, UniProt Q2FW32 245-314, looked up)
chain: KEKVLEMSIEELDLSVRSYNCLKRAGINSVQELADKSEADMMKVRNLGRKSLEEVKYKLEDLGLGLRKED
- binding result: binds
